Assays:
[1] = Maximum tolerated dose (MTD) study; type: in vivo, mouse
Protocol: BALB/c Nude mice, female, 6-8 weeks, weighing approximately 18-22 g were purchased from the Shanghai SLAC Laboratory Animal Co., LTD. MTD studies were conducted at WuXi AppTec and the care and use of animals was conducted in accordance with the regulations of the Association for Assessment and Accreditation of Laboratory Animal Care (AAALAC). Two MTD studies were performed (a) a low dose study with doses ranging from 0.1, 0.5, 1 and 3 mg/kg and (b) a high dose study with doses ranging from 3, 5, 10 mg/kg. Dosing volume was determined based on body weight (10 ul/g) and PDCs were dissolved in 25 mM Histidine 10% sucrose pH 7 and administered i.v. at a single dose at day 0. The treatment and observation were conducted up to 7 days and MTD was defined by ≥20% body weight loss. Body weights were measured daily, death and observed clinical signs were recorded.
Doses of 3, 5, and 10 mg/kg were administered. MTD was defined by ≥20% body weight loss and body weight measured daily.

MDA-MB-231 xenograft = test: MDA-MB-231 murine xenograft efficacy model; type: in vivo, mouse
Procedure, shortened: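 Female BALB/c nude mice bearing subcutaneous MDA-MB-231 tumours (10×10^6 cells in PBS/Matrigel), treated from ~150-200 mm^3 mean volume. Free MMAE given i.v. QW×4 at 0.6 or 0.06 mg/kg in 25 mM histidine/10% sucrose pH 7. Caliper volumes twice weekly; TGI (%) calculated against vehicle group.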

CC[C@H](C)[C@@H]([C@@H](CC(=O)N1CCC[C@H]1[C@H](OC)[C@@H](C)C(=O)N[C@H](C)[C@@H](O)c1ccccc1)OC)N(C)C(=O)[C@@H](NC(=O)[C@H](C(C)C)N(C)C(=O)OCc1ccc(NC(=O)[C@H](CCCNC(N)=O)NC(=O)[C@@H](NC(=O)CCCC(=O)NCCC(=O)N(C)CC(=O)N(C)CC(=O)N(C)CC(=O)N(C)CC(=O)N[C@@H](C)C(=O)N2CCC[C@H]2C(=O)N[C@@H](CCCNC(=N)N)C(=O)N[C@@H](Cc2c[nH]c3ccccc23)C(=O)N[C@@H](CC(=O)O)C(=O)N[C@@H](C)C(=O)N2CCC[C@H]2C(=O)N[C@@H](CC(C)C)C(=O)N[C@@H](CCCNC(=N)N)C(=O)N[C@@H](CC(=O)O)C(=O)N2CCC[C@H]2C(=O)N[C@@H](C)C(=O)N[C@@H](CC(C)C)C(=O)N[C@@H](CCCNC(=N)N)C(=O)N[C@@H](CCC(N)=O)C(=O)N[C@@H](CC(C)C)C(=O)N[C@@H](CC(C)C)C(=O)O)C(C)C)cc1)C(C)C [PRGN_WT_PDC]
sustained body weight loss ([1]; 5 mg/kg i.v. single dose, after 48 hrs, recovered at Day 7): ~15% | toxicity ([1]; 10 mg/kg i.v. single dose): significant toxicity | body weight loss ([1]; 10 mg/kg i.v. single dose, after 48 hrs, BALB/c nude mice): greater than 20% | tumor growth inhibition, dose dependence (MDA-MB-231 xenograft; 3, 1, 0.3 mg/kg i.v. QW×4): dose-dependent tumor growth inhibition | body weight variation (Example 6) (MDA-MB-231 xenograft; PDC at each dose, free MMAE at equivalency to 3 mg/kg PDC): mirrored that observed with vehicle treatment | body weight loss (Example 8) (MDA-MB-231 xenograft; PDCs 3 mg/kg, free MMAE at molar equivalency (0.6 mg/kg)): body weight loss tracked each other
